This passage reports amyloid nucleation score results from the supplement of paper PMC12042874.

± gives the uncertainty stated by the source.

This data set in a line: amyloid nucleation score (Sup35N fusion, yeast selection) (log enrichment); library NNK3; higher = more nucleation; inactive = no reads after selection. The method in brief:
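Sup35N fusions to peptides of 20 random codons were expressed in psi-negative yeast, induced 24 hours with 100 μM copper sulfate, and grown 7 days at 30°C on medium lacking adenine and uracil. Input and output plasmid inserts were sequenced by Illumina. The nucleation score is the DiMSum log enrichment of output over input reads, centred on the mode score of non-aggregating sequences. Sequences with under 100 input reads were excluded.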

SAGWMSTKVSVQLTNYPGLA yielded an amyloid nucleation score of 1.33 ± 0.16.
In the case of RIGAPKRRSRTWKNPAWTGQ it was “inactive”.
For LLQSLGGKESNLGK, the amyloid nucleation score entry is “inactive”.
In the case of CIRVTMSNMMVESWVYGDKP it was 0.586 ± 0.15; in that of MGQAEGFLNGSSEQVEPTFA, “inactive”; in that of ISWNLRGVVLLTYTICSWCI, “inactive”.
The entry for CTLIAKHNQA is “inactive”; for ADNKLANWSGAVREWEVRRV it is -0.523 ± 0.95; for HNRLSQVTDQLGRLVSRSLR it is “inactive”.
In the case of ITCLNMTWSTAGQWLCVSFT, the amyloid nucleation score is 1.05 ± 0.17.
For the substance SFRSAVRCTS, the amyloid nucleation score entry is “inactive”.
On to HNSQLWLVPSVFTKRLCHIN, for which the amyloid nucleation score result is “inactive”.
Substance ADSMTTGLVHGWCYFCMWFN registered an amyloid nucleation score of 2.16 ± 0.065.
Consider VSCRQLYQSIGGRKPDRRFI, for which the amyloid nucleation score entry is “inactive”.
For CWAYVMRT, the amyloid nucleation score entry was “inactive”.
Turning to SWRHSCNTRSNDYNIDWE, the amyloid nucleation score entry was “inactive”.
Regarding NPRVYNMIQPAYVNWSMDVT, the amyloid nucleation score result was “inactive”.
On to TIESNCVDDLSIGGAGPNLR, for which the amyloid nucleation score result was “inactive”.
Turning to YIVRDNEAYRKYGSANESGC, the amyloid nucleation score entry was “inactive”.
As for NSYGPRKSSGRVAPF, the amyloid nucleation score entry was “inactive”.
With KSMSLKTFCGWGETQYVFFV, the amyloid nucleation score result is “inactive”.
On to NCRRRKCVTGGGRS, for which the amyloid nucleation score is 1.16 ± 0.17.
In the case of IYSTWET it was -0.698 ± 1.5.
With WIWSGMYSNWPNSAPVNIR, the amyloid nucleation score entry is “inactive”.
For the substance IDVYLGLYMRRVSVLETHCS, the amyloid nucleation score was 2.02 ± 0.087.
For IVLYRKVRPCTWAE, the amyloid nucleation score result was “inactive”.
As for SMVVERGNQRLRSTYYADCV, the amyloid nucleation score result is “inactive”.
For the substance KQRVWR, the amyloid nucleation score result is “inactive”.
In the case of LHAMPLEGFLHLCPKLTCHQ it was 0.676 ± 0.18.
As for NNCYRMGFLCPTNRQTMEG, the amyloid nucleation score result was “inactive”.
In the case of LYLVKVD it was “inactive”; in that of HQVKVIVCCVTYVVQYVVMM, “inactive”; in that of YIFEPV, 0.318 ± 0.77.
In the case of CVSPDCMLMGAHDYGVERWL, the amyloid nucleation score result is “inactive”.
As to ILTLTSRPLLLNLKKPFWVF, the amyloid nucleation score result was “inactive”.
Turning to WCFYKSRLFVVQVVVLYNRF, the amyloid nucleation score result is “inactive”.
In the case of IAGCMGNCGLCRAMVICWMN, the amyloid nucleation score was -0.409 ± 0.7.
In the case of SRLIRKMKCVMGSTSSTIGY, the amyloid nucleation score entry is “inactive”.
In the case of SAWVIIIMLARYVAIS it was “inactive”; in that of MTSITVDYDNLDYRIAMITW, “inactive”.
MIRYSVQ registered an amyloid nucleation score of 0.131 ± 0.24.
In the case of GMVMVLQTTRYNCHMMRELQ it was “inactive”; in that of QLHRENEVVRYVF, “inactive”.
Regarding VIQIYIMRCLYDYYI, the amyloid nucleation score was 2.8 ± 0.063.
For the substance ACLLLSDLNY, the amyloid nucleation score entry was “inactive”.
LMKFFINVKVSGGVTCVRIN: the amyloid nucleation score entry is “inactive”.
In the case of LQSCSCAGLFPDL it was “inactive”.
Consider RPGYHSVVKHAKRLVEVNR, for which the amyloid nucleation score result was “inactive”.
In the case of FKMPTIRLVLK, the amyloid nucleation score result is “inactive”.
As for LQPCKNMSTLSQNPTLRCPF, the amyloid nucleation score entry is “inactive”.
As for CNGFFCGMCCYTKRKMKYAI, the amyloid nucleation score entry is “inactive”.
On to WDYILGFGHVSQRARMESFD, for which the amyloid nucleation score result was “inactive”.
For ALSNN, the amyloid nucleation score result was “inactive”.
Regarding YVSDD, the amyloid nucleation score result is “inactive”.
TMYVCWSMFEAIWDINHNTS: the amyloid nucleation score was -0.26 ± 0.64.
Consider WFFFDIAWRSPTIRRWTSSM, for which the amyloid nucleation score entry was “inactive”.
As to VNYRTQRRTQYTQCTRKVGG, the amyloid nucleation score result was “inactive”.
With NQWIAICNPSPFRVLTAHI, the amyloid nucleation score entry is “inactive”.
In the case of VVRIDSSLGKFNFQSAKD it was “inactive”; in that of QFYGLHMAFGKQVNALYTGH, “inactive”; in that of PRDYMINNLLVFQSRG, “inactive”.
Regarding QSPRRRMQSDIWS, the amyloid nucleation score entry was “inactive”.
Substance WSFNGSNECISRLDINLNVF gave an amyloid nucleation score of 0.407 ± 0.15.
As to HSSKSTGTYFGNMS, the amyloid nucleation score result is “inactive”.
Consider MWVQEYKTNNGYSLA, for which the amyloid nucleation score entry is “inactive”.
On to CCLFADCDLRYFSNRTFFNC, for which the amyloid nucleation score entry is “inactive”.
With VMMFYNILHSQIDKLFKLLA, the amyloid nucleation score entry was “inactive”.
In the case of PPSISSPFALRVFTFVLRY, the amyloid nucleation score entry was “inactive”.
Consider AVTCVDSWMRDTG, for which the amyloid nucleation score result was “inactive”.
For IETGSKYVAVRARLQSVMDG, the amyloid nucleation score result was “inactive”.
The entry for LCISVPNFSLAFLSLGWLCK is “inactive”; for WINTRLGCPDTNRGSTRVTL it is “inactive”.
The entry for KLFSYRRRPNINCLG is “inactive”.
The figure for CANAYWDVCCCYVFLMGLGG is -0.268 ± 1.1; for YNFNV it is “inactive”.
Consider WWGNRAVVYIILLHEPGAWR, for which the amyloid nucleation score result is “inactive”.
As for CSGFRVNSSTVIGYLSILLK, the amyloid nucleation score result is “inactive”.
Turning to YLFEYSEV, the amyloid nucleation score result was “inactive”.
Consider ESRSRLRNGTLFNCVIN, for which the amyloid nucleation score was -0.081 ± 0.5.
In the case of WVIRELTWITWIVLADLS it was “inactive”; in that of EAMPHLARGFVVFMCFFRSG, “inactive”.
Consider ALKVYADMIDYLWLRTFMSW, for which the amyloid nucleation score entry was “inactive”.
Consider KDCASGSRSTAIFAFCSGAF, for which the amyloid nucleation score was 0.281 ± 0.27.
Turning to NALILAT, the amyloid nucleation score result was “inactive”.
As for LQGQHDAHWQSCSRLSECSQ, the amyloid nucleation score entry is “inactive”.
In the case of CSWRNRYCMLRRELFGAWRV it was “inactive”; in that of VKYYDFCEPGRGYKDIRRL, “inactive”.
Turning to AVRSFLTWISMN, the amyloid nucleation score entry is “inactive”.
On to LLCVDSTKTMIAYD, for which the amyloid nucleation score entry is “inactive”.
As for RGIDYSHTL, the amyloid nucleation score result is “inactive”.
NGSHDRGVPAELSAFKG: the amyloid nucleation score entry was “inactive”.
In the case of LTHPCLMPFMLVVTRLYMAA, the amyloid nucleation score is -1.03 ± 1.8.
As for RCCLNTVPSAFTGYKNPTVK, the amyloid nucleation score result was “inactive”.
In the case of WTWGKAYDAMFLIVTFFCIF it was “inactive”.
As for QHKKKIAF, the amyloid nucleation score entry was “inactive”.
LGQRWHVMLVLMSVYIF: the amyloid nucleation score entry was “inactive”.
On to AGWCYFASSVLVRTSWSQCA, for which the amyloid nucleation score result was “inactive”.
In the case of CLFSHYLV it was “inactive”.
SVRGIKVNLWRKEDLYASTQ: the amyloid nucleation score result is “inactive”.
Turning to CNSYTYVEGSNYNGSSQGLD, the amyloid nucleation score entry was “inactive”.
As for VGNQKIIMRGALELDRELTC, the amyloid nucleation score result was “inactive”.
With NLSLGQFIKAAVKFVHKPRK, the amyloid nucleation score was 1.34 ± 0.14.
The entry for CPESLWNKSYVYAGALTFLR is “inactive”; for VPMFSSLCPYTISLFQGTSP it is “inactive”; for SYCDVFTGNNLHLVVSFFYS it is 2.7 ± 0.053.
Turning to CAYPVKKCMPYQYMKKFVLV, the amyloid nucleation score result was “inactive”.
In turn, VKMSWHHHCLFLICLCTSYE showed an amyloid nucleation score of 0.606 ± 0.13.
LKDNPNSLWC: the amyloid nucleation score is -0.224 ± 1.1.
For GYYPLYVTFNSMCEFNIQLQ, the amyloid nucleation score was found to be 3.11 ± 0.051.
As for LHSIFDSVHSCMRFWMIWSE, the amyloid nucleation score entry was “inactive”.
On to TNVRIYCSWGVDAG, for which the amyloid nucleation score entry was “inactive”.
On to VEMGVLSGFK, for which the amyloid nucleation score is -0.288 ± 0.75.
Turning to RQCGVVIKFLMISTLISSIA, the amyloid nucleation score result was “inactive”.
For FLWVAANLDFVYDEREHIRG, the amyloid nucleation score entry is “inactive”.
The figure for YSLCACSYYVNVVNNRVVSV is 1.39 ± 0.073; for RNSVFLCKGIQVYLVLVIVV it is “inactive”; for IYFDVV it is “inactive”.
Turning to VIRVKSSCLVLLEHKLLACG, the amyloid nucleation score result was “inactive”.
With RYLLIPAVGLK, the amyloid nucleation score entry is “inactive”.
As to LSSCMWDGPFFNCRVMKLSG, the amyloid nucleation score entry is “inactive”.
As to GWVLILKMGYFRSLWNITVL, the amyloid nucleation score result is “inactive”.
On to VKSLIELCRYNRPLALDLNI, for which the amyloid nucleation score was -0.519 ± 0.8.
With VTGDWTGYMPLCLISVAFLS, the amyloid nucleation score is 1.5 ± 0.083.
For YKICSLACVKHGREPV, the amyloid nucleation score result is “inactive”.
As for SHYRDK, the amyloid nucleation score result is “inactive”.
Turning to EFSYISVCRLQLLMHTKIWD, the amyloid nucleation score stood at 1.43 ± 0.14.
As to FDLTWSIVEHFHVWLLRFSF, the amyloid nucleation score entry is “inactive”.
In the case of IYTLSTLLWFWSAWSILAVI it was -0.197 ± 1.1; in that of FCNCNMFYDLCLCAHGMPSA, 2.99 ± 0.067.
On to QMRTWSKIYICTKPFL, for which the amyloid nucleation score was 1.07 ± 0.1.
As for VNHKFKSSFFNNH, the amyloid nucleation score was -0.27 ± 1.1.
